For assay [1], the target named is T1, FcγRIIIa-V158 (Pichia pastoris produced) (UniProt P08637 17-208, limits assumed).
T1 construct: also called FcγRIIIA LV; FcgRIIIA LV
As to the kind of experiment: ELISA-type plate assay, FcγR coated, antibody dimerized with AP-conjugated goat anti-human IgG F(ab')2, RFU readout. The method, then:
(§1) Fcγ receptor binding assays were carried out as described (Shields, et al. (2001) J. Biol. Chem. 276:6591-6604) with minor modifications. High protein binding 96-well plates (Corning Costar) were coated with 100 μL per well of Fcγ receptor solutions in PBS at the following concentrations: 1 μg/mL for both FcγRI (R&D Systems) and FcγRIIa (Pichia pastoris produced), 2 μg/mL for FcγRIIb (P. pastoris produced), 0.8 μg/mL for FcγRIIIa-F158, and 0.4 μg/mL for FcγRIIIa-V158 (both P. pastoris produced). All Pichia pastoris produced receptors were expressed and purified as described (Li, et al. (2006) Nature Biotechnology 24:210-215). Monomeric antibody samples added to the FcγRI plate were serially diluted in assay diluent (1×PBS, 1% BSA, and 0.05% Tween20) and 100 μL, per well was added to the plate. Antibody samples prepared for the remaining receptors require a one hour dimerization step with half molar ratio of goat anti-human IgG F(ab′)2 F(ab′)2 that is conjugated with alkaline phosphatase for detection. These dimerized F(ab′)2/antibody complexes were also serially diluted and 100 μL per well were added to the remaining receptor plates and all plates were incubated for one hour at room temperature. FcγRI bound sample antibody was detected using the same goat anti-human IgG F(ab′)2 alkaline phosphatase conjugated F(ab′)2. Sample antibody binding was quantified by measuring excitation at 340 nm and emission at 465 nm after 18 hour incubation with SuperPhos, 4-MUP Fluorescence AP Substrate Detection System (Virolabs).

The target in assay [2] is T1, FcγRIIIa-V158 (Pichia pastoris produced). The description is as above. The method, then: as §1
This is another data set of the same source.

For assay [3] the target is unchanged. The assay is described as above. The method, then:
as §1
The source holds these as a separate data set.

The target is the same in assay [4]. The assay is described as above. The method, then: as §1
The source holds these as a separate data set.

The target of assay [5] is T2, FcγRIIA H (UniProt P12318 34-217, limits assumed).
T2 construct: also called FcgRIIA H
T2 sequence (looked up): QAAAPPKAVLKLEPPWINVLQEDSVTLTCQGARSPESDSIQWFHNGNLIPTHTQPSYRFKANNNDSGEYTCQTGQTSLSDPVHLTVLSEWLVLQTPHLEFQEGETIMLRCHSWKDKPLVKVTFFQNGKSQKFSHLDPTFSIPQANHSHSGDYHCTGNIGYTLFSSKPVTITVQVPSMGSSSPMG
As to the kind of experiment: fold change of the Table 12 affinities (reference row). The method, then:
as §1

In assay [6] the target is T1, FcγRIIIa-V158 (Pichia pastoris produced). The description is as above. The method, then:
as §1

In assay [7] the target is T3, FcγRIIb (Pichia pastoris produced) (UniProt P31994 43-217, limits assumed).
T3 construct: also called FcgRIIB; CD32B
T3 sequence (looked up): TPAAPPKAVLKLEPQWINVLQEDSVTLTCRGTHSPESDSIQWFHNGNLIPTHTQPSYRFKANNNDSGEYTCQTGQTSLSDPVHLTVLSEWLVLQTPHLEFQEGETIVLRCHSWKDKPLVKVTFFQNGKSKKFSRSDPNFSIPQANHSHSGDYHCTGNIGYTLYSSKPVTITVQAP
The description is as above. The method, then: as §1

For assay [8], the target named is T4, FcγRIIIa-F158 (Pichia pastoris produced) (UniProt P08637 17-208, limits assumed).
T4 construct: also called FcγRIIIA LF; FcgRIIIA LF
T4 sequence (P08637 17-208 limits assumed): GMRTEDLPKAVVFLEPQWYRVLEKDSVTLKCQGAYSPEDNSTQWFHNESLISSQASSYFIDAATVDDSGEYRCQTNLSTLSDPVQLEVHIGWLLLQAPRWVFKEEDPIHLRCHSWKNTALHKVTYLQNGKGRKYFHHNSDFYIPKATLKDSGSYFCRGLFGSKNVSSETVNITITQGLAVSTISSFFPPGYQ
The description is as above. The method, then: as §1

Assay [9] concerns the target T1, FcγRIIIa-V158 (Pichia pastoris produced). As to the kind of experiment: FcγR affinity assay 'as described in Example 7', n = 3; printed as Affinity (nM) ± STDEV. The method, then: as §1
In assay [10] the target is T4, FcγRIIIa-F158 (Pichia pastoris produced). Described as above. The method, then: as §1
The target of assay [11] is T1, FcγRIIIa-V158 (Pichia pastoris produced). As to the kind of experiment: ELISA-type plate assay, FcγR coated, antibody dimerized with AP-conjugated goat anti-human IgG F(ab')2, RFU readout. The method, then: as §1
This is another data set of the same source.

Assay [12] has the same target. The assay is described as above. The method, then: as §1
This is another data set of the same source.

In assay [13] the target is T3, FcγRIIb (Pichia pastoris produced). Described as above. The method, then: as §1
For assay [14], the target named is T4, FcγRIIIa-F158 (Pichia pastoris produced). Described as above. The method, then: as §1
Assay [15] addresses T1, FcγRIIIa-V158 (Pichia pastoris produced). As to the kind of experiment: summary of the FcγR ELISAs; Table 8 summary: range of fold decrease over the ELISA experiments. The method, then: as §1, with “These dimerized F(ab′)2/antibody complexes were also serially diluted and 100 μL per well were added to the remaining receptor plates and all plates were incubated for one hour at room temperature.” left out

Assay [16] has as its target T4, FcγRIIIa-F158 (Pichia pastoris produced). Described as above. The method, then: as §1, with “These dimerized F(ab′)2/antibody complexes were also serially diluted and 100 μL per well were added to the remaining receptor plates and all plates were incubated for one hour at room temperature.” left out
Assay [17] addresses T3, FcγRIIb (Pichia pastoris produced). As to the kind of experiment: fold change of the Table 12 affinities; Table 13 fold change computed from the Table 12 affinities. The method, then: as §1, with “These dimerized F(ab′)2/antibody complexes were also serially diluted and 100 μL per well were added to the remaining receptor plates and all plates were incubated for one hour at room temperature.” left out

Like-named read-outs stand apart in the source and are kept apart here.

T1 sequence (P08637 17-208 F176V limits assumed): as the sequence (P08637 17-208 limits assumed) above, with F160V counted along it

B1: 1F11 wildtype (parent) humanized anti-PCSK9 monoclonal IgG1 antibody (antibody)
heavy: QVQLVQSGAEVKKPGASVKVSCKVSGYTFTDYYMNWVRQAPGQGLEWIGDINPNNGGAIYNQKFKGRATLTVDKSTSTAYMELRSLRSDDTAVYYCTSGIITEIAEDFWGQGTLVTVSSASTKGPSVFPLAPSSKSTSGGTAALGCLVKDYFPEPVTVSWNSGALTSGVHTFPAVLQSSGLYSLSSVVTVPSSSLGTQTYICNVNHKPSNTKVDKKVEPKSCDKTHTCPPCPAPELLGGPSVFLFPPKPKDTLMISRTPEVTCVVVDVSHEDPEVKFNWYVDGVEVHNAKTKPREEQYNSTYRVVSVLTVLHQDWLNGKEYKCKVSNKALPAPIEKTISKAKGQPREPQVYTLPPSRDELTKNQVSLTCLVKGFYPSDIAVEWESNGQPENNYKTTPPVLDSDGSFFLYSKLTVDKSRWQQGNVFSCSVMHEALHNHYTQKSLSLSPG
light: DIQMTQSPSSLSASVGDRVTITCKASQNVGTNVVWYQQKPGKAPKALIHSASYRYSGVPSRFSGSGSGTDFTLTISSLQPEDFATYYCQQYKTYPYTFGQGTKVEIKRTVAAPSVFIFPPSDEQLKSGTASVVCLLNNFYPREAKVQWKVDNALQSGNSQESVTEQDSKDSTYSLSSTLTLSKADYEKHKVYACEVTHQGLSSPVTKSFNRGEC
notes: Produced in glycoengineered Pichia pastoris GFI5.0 (strain YGLY21351); also called 1F11 IgG1 GS5.0; YGLY21351
With B1, the “EC50 (read off the curve)” value was ~0.03 mg/L in [1]; ~0.04 mg/L in assay [2]; ~0.05 mg/L in [3]; ~0.04 mg/L in assay [4]; ~0.03 mg/L in [11]; ~0.03 mg/L in assay [12]. Moreover, the “EC50 (read off the curve)” value was ~0.2 mg/L in assay [13] and ~0.02 mg/L in assay [14]. In addition, the “fold change in affinity vs 1F11 IgG1 GS5.0” value in [5], in assay [6], in assay [7] and in [8] was 1 fold each time. Besides, the Kd in assay [9] was 0.00015 µM; in assay [10], 0.203 µM.

B2: 1F11 IgG1 F243A/V264A double mutein anti-PCSK9 antibody (antibody)
heavy: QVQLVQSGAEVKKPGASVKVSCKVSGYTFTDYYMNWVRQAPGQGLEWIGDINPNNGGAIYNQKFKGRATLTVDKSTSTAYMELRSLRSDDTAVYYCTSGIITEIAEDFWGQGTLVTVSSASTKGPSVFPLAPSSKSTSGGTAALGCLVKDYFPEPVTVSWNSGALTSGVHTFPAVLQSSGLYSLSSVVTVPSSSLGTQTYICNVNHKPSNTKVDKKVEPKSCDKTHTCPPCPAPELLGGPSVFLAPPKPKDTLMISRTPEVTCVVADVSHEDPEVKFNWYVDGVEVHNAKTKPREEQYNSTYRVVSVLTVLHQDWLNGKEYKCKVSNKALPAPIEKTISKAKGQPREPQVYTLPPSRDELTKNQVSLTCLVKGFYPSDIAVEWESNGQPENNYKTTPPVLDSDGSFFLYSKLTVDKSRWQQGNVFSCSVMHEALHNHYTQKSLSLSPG
light: B1 light
notes: sialylated N-glycans; also called 1F11 DM; YGLY23258
Consider B2, for which the “EC50 (read off the curve)” value in assay [1] is ~0.2 mg/L; in [2] it was ~0.1 mg/L; in [3], ~0.1 mg/L; in assay [4], ~0.1 mg/L; in assay [11] it was ~0.2 mg/L; in assay [12], ~0.1 mg/L. Further, the “decreased affinity fold vs wildtype parent antibody produced in GS 5.0” value fell in the range of 2 to 6 fold in assay [15] and 8 to 60 fold in [16]. The equilibrium dissociation constant (Kd) amounted to 0.097 µM in assay [9] and 2.52 µM in assay [10]. In addition, the “fold change in affinity vs 1F11 IgG1 GS5.0” value in [17] was determined as 3 fold.

For the origin of these results see patent US20140086916A1 (Merck Sharp & Dohme, published 2014).
